{"source": "paper PMC9071424", "about": "“Microarray screening reveals two non-conventional SUMO-binding modules linked to DNA repair by non-homologous end-joining” (Nucleic Acids Research, 2022)", "target": "T1, XLF-6×His (human, UniProt Q9H9Q4 1-299)", "T1 construct": "XLF (NHEJ1), human, amplified from pGEX2TKP-XLF and subcloned into pHAT5; source: E. coli BL21-CodonPlus (DE3)-RIL, purified (HP His-trap, HiTrap Q HP)", "T1 sequence (Q9H9Q4 whole entry, the tested form may be a part)": "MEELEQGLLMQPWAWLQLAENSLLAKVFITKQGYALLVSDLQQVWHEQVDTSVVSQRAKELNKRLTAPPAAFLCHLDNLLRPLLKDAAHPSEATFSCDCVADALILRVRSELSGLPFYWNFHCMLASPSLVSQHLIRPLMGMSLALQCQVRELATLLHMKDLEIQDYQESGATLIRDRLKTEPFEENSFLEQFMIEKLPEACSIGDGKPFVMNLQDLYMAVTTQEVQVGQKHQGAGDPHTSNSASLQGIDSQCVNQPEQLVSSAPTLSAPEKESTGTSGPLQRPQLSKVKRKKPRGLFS", "test": "BLI; XLF binding of XRCC4 1–164 and its mutants", "details": "both partners purified", "data": [{"binder": "6×His-XRCC4^1–164 (C-to-A) (domain or fragment, human, UniProt Q13426 1-164, looked up, 15N-labelled where it was the observed protein in NMR, pET-28a vector; also called XRCC4 head domain; not shown: 6×His, N-terminal, kept) MERKISRIHLVSEPSITHFLQVSWEKTLESGFVITLTDGHSAWTGTVSESEISQEADDMAMEKGKYVGELRKALLSGAGPADVYTFNFSKESAYFFFEKNLKDVSFRLGSFNLEKVENPAEVIRELIAYALDTIAENQAKNEHLQKENERLLRDWNDVQGRFEK", "values": [{"measurement": "binding result", "result": "binds"}]}]}
